We go through 1 substance from patent publication US20160136234A1.

Some targets named below: PKBα (h) (human) (UniProt P31749); NEK7 (h) (human) (UniProt Q8TDX7); Src(T341M) (h) (human) (UniProt P12931); CDK1/cyclinB (h) (human) (UniProt P06493); VRK2 (h) (human) (UniProt Q86Y07); PASK (h) (human) (UniProt Q96RG2); mTOR/FKBP12 (h) (human) (UniProt P42345); Src(1-530) (h) (human) (UniProt P12931); NEK6 (h) (human) (UniProt Q9HC98); WNK2 (h) (human) (UniProt Q9Y3S1).

Holding throughout (assay): cell-based or functional assay
The target of a further test is T1, NLK (h) (human) (UniProt Q9UBE8).
T1 sequence (looked up): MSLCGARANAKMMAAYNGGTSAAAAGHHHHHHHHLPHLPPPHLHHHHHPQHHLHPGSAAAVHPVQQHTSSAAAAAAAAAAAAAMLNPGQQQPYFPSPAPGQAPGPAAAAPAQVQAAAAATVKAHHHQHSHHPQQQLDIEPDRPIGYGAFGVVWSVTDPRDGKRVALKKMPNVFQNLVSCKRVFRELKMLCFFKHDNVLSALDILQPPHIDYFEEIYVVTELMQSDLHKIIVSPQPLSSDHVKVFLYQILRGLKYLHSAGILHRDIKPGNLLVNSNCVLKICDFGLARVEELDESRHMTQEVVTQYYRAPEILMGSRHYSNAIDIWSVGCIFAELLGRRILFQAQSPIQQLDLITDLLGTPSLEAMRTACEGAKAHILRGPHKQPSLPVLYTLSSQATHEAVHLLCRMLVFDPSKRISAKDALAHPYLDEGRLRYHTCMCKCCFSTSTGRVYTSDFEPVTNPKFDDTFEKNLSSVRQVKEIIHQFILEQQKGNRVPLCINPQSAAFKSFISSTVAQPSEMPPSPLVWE

A further test concerns the target T2, Rse (h) (human) (UniProt Q06418).
T2 sequence (looked up): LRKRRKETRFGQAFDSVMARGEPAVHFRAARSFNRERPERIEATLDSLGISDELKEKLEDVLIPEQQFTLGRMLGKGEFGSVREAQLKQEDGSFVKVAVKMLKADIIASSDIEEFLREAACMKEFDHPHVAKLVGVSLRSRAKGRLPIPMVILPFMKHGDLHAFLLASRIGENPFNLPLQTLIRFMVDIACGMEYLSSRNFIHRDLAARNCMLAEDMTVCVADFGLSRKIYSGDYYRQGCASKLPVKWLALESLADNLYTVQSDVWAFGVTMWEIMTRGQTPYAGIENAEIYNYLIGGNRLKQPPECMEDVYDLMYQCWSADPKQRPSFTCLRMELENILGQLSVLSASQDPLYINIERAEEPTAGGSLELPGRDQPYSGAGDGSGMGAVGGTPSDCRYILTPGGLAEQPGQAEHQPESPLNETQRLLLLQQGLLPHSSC

A further test addresses T3, SAPK4 (h) (human) (UniProt O15264).
T3 sequence (looked up): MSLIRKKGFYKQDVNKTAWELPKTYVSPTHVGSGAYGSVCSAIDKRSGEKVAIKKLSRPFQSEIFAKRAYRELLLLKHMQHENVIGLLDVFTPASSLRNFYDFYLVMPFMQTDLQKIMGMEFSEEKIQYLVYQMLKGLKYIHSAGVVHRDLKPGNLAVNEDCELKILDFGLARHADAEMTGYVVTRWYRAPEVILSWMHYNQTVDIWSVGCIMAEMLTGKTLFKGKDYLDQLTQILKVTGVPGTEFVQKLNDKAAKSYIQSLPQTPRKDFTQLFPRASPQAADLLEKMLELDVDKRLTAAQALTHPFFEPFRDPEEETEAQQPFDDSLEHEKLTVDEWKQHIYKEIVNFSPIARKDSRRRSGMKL

Another test has as its target T4, Axl (h) (human) (UniProt P30530).
T4 sequence (looked up): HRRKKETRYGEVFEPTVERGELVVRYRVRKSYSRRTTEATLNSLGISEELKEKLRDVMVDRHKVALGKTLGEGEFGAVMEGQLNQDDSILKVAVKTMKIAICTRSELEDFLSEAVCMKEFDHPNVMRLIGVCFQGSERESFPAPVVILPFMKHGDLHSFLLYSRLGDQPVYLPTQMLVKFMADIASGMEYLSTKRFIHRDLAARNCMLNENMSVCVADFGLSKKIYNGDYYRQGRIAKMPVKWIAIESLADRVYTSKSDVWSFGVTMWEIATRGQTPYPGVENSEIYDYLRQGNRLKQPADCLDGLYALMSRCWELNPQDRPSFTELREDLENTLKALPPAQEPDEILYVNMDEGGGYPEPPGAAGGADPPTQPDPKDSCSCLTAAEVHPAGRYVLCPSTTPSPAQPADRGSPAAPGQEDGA

For test [1], the target named is IR (h), activated (human) (UniProt P06213).
A further test concerns the target T5, SAPK3 (h) (human) (UniProt P53778).
T5 sequence (looked up): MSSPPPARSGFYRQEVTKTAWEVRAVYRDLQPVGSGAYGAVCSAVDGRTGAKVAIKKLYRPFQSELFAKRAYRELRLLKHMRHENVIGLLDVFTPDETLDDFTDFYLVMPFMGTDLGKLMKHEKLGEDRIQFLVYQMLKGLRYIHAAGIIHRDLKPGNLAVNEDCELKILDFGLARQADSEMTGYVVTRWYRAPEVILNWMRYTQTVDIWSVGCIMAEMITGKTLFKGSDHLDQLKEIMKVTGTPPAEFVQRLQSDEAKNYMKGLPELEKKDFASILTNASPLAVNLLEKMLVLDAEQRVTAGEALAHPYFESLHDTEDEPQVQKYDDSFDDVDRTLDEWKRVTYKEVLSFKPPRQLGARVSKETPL

Chain of mTOR/FKBP12 (h) (human) (P42345 1362-2549 limits assumed, chain 1 of 2): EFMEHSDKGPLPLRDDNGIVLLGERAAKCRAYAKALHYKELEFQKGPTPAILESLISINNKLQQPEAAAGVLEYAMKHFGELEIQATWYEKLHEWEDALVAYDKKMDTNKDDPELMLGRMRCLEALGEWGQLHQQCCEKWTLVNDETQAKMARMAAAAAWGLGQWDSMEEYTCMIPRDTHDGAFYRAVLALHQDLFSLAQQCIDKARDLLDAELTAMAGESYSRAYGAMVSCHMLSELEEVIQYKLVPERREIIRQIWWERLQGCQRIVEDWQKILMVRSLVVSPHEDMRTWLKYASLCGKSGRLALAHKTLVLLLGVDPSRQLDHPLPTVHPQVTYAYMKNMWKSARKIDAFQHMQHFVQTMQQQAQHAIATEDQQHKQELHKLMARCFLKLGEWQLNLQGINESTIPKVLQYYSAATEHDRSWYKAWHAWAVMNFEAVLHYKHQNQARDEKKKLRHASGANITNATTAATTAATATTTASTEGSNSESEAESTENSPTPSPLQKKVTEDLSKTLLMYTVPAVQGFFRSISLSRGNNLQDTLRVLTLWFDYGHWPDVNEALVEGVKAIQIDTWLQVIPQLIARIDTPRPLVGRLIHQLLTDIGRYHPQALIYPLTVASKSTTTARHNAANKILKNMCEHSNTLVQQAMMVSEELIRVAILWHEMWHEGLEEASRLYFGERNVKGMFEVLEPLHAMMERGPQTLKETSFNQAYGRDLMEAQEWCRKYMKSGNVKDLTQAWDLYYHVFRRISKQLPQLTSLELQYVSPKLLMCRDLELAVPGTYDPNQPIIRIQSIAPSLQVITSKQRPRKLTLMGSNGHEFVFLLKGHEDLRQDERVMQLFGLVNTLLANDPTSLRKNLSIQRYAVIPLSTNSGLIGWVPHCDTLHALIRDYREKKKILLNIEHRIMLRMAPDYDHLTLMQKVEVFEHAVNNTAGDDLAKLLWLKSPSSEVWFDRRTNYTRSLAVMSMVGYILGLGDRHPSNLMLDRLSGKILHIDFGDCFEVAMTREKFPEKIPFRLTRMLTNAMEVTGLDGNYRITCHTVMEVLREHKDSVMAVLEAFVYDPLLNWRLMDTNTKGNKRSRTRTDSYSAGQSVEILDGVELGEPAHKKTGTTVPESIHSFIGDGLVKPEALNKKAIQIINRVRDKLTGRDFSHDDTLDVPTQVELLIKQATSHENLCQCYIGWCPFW
Chain of mTOR/FKBP12 (h) (human) (P62942 whole entry, chain 2 of 2, further chain): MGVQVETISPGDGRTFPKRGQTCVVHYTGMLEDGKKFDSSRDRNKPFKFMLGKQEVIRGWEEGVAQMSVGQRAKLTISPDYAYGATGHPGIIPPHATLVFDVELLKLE
Chain of PKBα (h) (human) (P31749 whole entry): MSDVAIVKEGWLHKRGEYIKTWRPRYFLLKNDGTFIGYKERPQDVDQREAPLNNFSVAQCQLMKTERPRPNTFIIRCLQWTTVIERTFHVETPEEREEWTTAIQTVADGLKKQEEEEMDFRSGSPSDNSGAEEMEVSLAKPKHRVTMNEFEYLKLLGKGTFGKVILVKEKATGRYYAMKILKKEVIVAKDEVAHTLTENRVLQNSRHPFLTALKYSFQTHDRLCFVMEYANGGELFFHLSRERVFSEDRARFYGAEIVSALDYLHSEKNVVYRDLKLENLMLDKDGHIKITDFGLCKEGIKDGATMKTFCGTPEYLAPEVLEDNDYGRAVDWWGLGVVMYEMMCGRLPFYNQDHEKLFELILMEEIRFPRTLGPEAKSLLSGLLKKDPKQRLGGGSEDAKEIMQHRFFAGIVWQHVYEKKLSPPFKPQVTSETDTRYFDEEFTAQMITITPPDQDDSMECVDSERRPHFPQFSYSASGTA
Chain of VRK2 (h) (human) (Q86Y07 whole entry): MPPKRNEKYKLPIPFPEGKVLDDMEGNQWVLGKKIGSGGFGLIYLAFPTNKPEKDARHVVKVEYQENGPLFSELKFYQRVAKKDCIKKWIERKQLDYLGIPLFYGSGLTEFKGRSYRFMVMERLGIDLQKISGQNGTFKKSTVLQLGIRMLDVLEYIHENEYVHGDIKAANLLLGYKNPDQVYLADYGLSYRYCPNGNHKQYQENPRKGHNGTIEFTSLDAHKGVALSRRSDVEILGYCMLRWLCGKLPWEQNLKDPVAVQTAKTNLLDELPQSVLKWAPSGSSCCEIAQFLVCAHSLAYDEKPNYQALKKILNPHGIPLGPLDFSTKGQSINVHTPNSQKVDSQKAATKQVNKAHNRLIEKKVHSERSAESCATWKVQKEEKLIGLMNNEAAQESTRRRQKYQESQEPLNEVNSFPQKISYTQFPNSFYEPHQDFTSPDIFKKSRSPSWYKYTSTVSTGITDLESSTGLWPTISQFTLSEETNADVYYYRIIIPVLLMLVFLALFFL
Chain of IR (h), activated (human) (P06213 1005-1310 limits assumed): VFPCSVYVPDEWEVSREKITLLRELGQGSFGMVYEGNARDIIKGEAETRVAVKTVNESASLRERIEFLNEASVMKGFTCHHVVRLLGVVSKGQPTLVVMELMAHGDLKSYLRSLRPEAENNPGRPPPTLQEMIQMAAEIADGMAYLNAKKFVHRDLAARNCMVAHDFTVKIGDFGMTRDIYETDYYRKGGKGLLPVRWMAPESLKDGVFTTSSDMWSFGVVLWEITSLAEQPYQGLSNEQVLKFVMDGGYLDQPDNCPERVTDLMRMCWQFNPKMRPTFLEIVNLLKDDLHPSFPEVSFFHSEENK

In the case of MMI-0300 (peptide), the % activity at 100 µM with PKBα (h) (human) came out at 57%; in the test with NEK7 (h) (human), 84%; in the test with Src(T341M) (h) (human) it was 70%; in the test with CDK1/cyclinB (h) (human) it was 73%; with VRK2 (h) (human) it was 161%; with NLK (h) (human), 87%. For the same substance, the % activity at 100 µM in the test with PASK (h) (human) was 29%; with mTOR/FKBP12 (h) (human) it was 145%; in the test with Rse (h) (human), 88%; in the test with Src(1-530) (h) (human), 23%; with SAPK4 (h) (human), 96%; with Axl (h) (human), 52%. Further, the % activity at 100 µM in the test with NEK6 (h) (human) came out at 82%; in test [1] it was 79%; with WNK2 (h) (human), 64%; in the test with SAPK3 (h) (human), 84%.
